From paper PMC7935764 (Structure (London, England : 1993), 2020)

Columns and labels:
[1] = molecular target: IN CCD^F185K (HIV-1 (NL4-3)); assay: AUC
[2] = molecular target: HIV integrase CTD CTD (Human immunodeficiency virus 1) (UniProt O93215); assay: NMR; settings: cited from earlier work
[3] = molecular target: HIV-1 integrase IN^F185H,L242A (HIV-1 (NL4-3)); assay: SEC-MALS
[4] = molecular target: HIV-1 integrase IN^F185H,L242A (HIV-1 (NL4-3)); assay: AUC
[5] = molecular target: IN CCD^F185K (HIV-1 (NL4-3)); assay: SEC-MALS + AUC + other: SEC-SAXS
SEC-MALS = molecular target: the molecule itself; assay: SEC-MALS
SEC-SAXS = molecular target: the molecule itself; assay: SEC-SAXS

**Q.** Which KD without BI-224436 [1] does the source give for “HFS-IN(CTD)^220-280(L242A) (from UniProt P12497 221-281) (domain or fragment)” here?
**A.** The KD without BI-224436 was > 1000 µM.

**Q.** With “HIV integrase CTD CTD (from UniProt O93215)” as the molecule, how does the Kd [2] read?
**A.** Its Kd is 1 µM.

**Q.** With HIV-1 integrase IN^F185H,L242A (enzyme) as the molecule, how does the stoichiometry N [3] read?
**A.** The stoichiometry N was 2.

**Q.** What about the stoichiometry N [4] of the same molecule?
**A.** The stoichiometry N was 2.

**Q.** Which stoichiometry N [5] does the source give for IN CCD^F185K (domain or fragment) here?
**A.** The stoichiometry N was 2.

B1: His6-FLAG-SUMO (HFS)-tagged CTD^220-270, wild type (domain or fragment)
chain: IQNFRVYYRDSRDPVWKGPAKLLWKGEGAVVIQDNSDIKVVPRRKAKIIRD
**Q.** With B1 as the molecule, how does the “stoichiometry N” value (SEC-MALS) read?
**A.** Its value is 2.

B2: CTD^220-270 (domain or fragment)
chain: B1 chain
**Q.** With B2 as the molecule, how does the “stoichiometry N” value (SEC-SAXS) read?
**A.** The value was 2.
